Test results taken from patent publication US20130116195A1, “Binding ligand linked drug delivery conjugates of tubulysins” (priority 2009, published 2013).
“Also recorded” adds a separate entry of the source.

Columns and labels:
[1] = Serum binding (30K NMWL filtration/HPLC-UV), mouse serum; assay type: in vitro ADME; conditions: 50 μM test article concentration in serum, n = 3, read-out: Mouse Serum % Bound (converted)
Procedure: (§1) METHOD: Serum binding against different species. Compounds are tested with 30K NMWL, subjected to Microcon filtration (10,000 g for 30 minutes), and compounds are detected by HPLC. […] There was two times the amount of free EC0531 in serum compared to EC0305.

[2] = Serum binding (30K NMWL filtration/HPLC-UV), human serum; assay type: in vitro ADME; conditions: for fraction unbound: human, 50 μM test article concentration in serum, n = 3, read-out: Human Serum % Bound (converted)
Procedure: as §1

[3] = Toxicity as measured by weight loss; assay type: in vivo, mice; conditions: for tolerability (percent weight change): FIG. 6, 3 μmol/kg TIW, female mice
Procedure: METHOD: Additional In vivo antitumor method. Four to six week-old female nu/nu mice (Charles River, Wilmington, Mass.) were maintained on a standard 12 h light-dark cycle and fed ad libitum with folate-deficient chow (Harlan diet #TD00434, Harlan Teklad, Madison, Wis.) for the duration of the experiment. KB cells (1×10^6 per nu/nu mouse) in 100 μL were injected in the subcutis of the dorsal medial area. Mice were divided into groups of five, and test articles were freshly prepared and injected through the lateral tail vein under sterile conditions in a volume of 200 μL of phosphate-buffered saline (PBS). Intravenous (i.v.) treatments were typically initiated on approximately 9 post-tumor cell implantation when the KB tumors were approximately 100-200 mm^3 in volume. The mice in the control groups received no treatment. Growth of each s.c. tumor was followed by measuring the tumor three times per week during treatment and twice per week thereafter until a volume of 1500 mm^3 was reached. Tumors were measured in two perpendicular directions using Vernier calipers, and their volumes were calculated as 0.5×L×W^2, where L=measurement of longest axis in mm and W=measurement of axis perpendicular to L in mm. As a general measure of toxicity, changes in body weights were determined on the same schedule as tumor volume measurements. Survival of animals was monitored daily. Animals that were moribund (or unable to reach food or water) were euthanized by CO2 asphyxiation. All in vivo studies were performed in accordance with the American Accreditation Association of Laboratory Animal Care guidelines.
METHOD: Toxicity as Measured by Weight Loss. The percentage weight change of the mice was determined in mice (5 mice/group) on selected days post-tumor inoculation (PTI), and graphed.

[4] = system: folate receptor-positive KB cells; assay: Inhibition of Cellular DNA Synthesis (3H-thymidine incorporation cytotoxicity assay); assay type: cell-based; conditions: 2 hour pulse and 72 hour chase
Procedure: METHOD: Inhibition of Cellular DNA Synthesis. The compounds described herein were evaluated using an in vitro cytotoxicity assay that predicts the ability of the drug to inhibit the growth of folate receptor-positive KB cells. The compounds were comprised of folate linked to a respective chemotherapeutic drug, as prepared according to the protocols described herein. The KB cells were exposed for up to 7 h at 37° C. to the indicated concentrations of folate-drug conjugate in the absence or presence of at least a 100-fold excess of folic acid. The cells were then rinsed once with fresh culture medium and incubated in fresh culture medium for 72 hours at 37° C. Cell viability was assessed using a ^3H-thymidine incorporation assay. For compounds described herein, dose-dependent cytotoxicity was generally measurable, and in most cases, the IC50 values (concentration of drug conjugate required to reduce ^3H-thymidine incorporation into newly synthesized DNA by 50%) were in the low nanomolar range.
METHOD: In vitro test against the various cancer cell lines. Cells are heavily seeded in 24-well Falcon plates and allowed to form nearly confluent monolayers overnight. Thirty minutes prior to the addition of the test compound, spent medium is aspirated from all wells and replaced with fresh folate-deficient RPMI medium (FFRPMI). A subset of wells are designated to receive media containing 100 μM folic acid. The cells in the designated wells are used to determine the targeting specificity. […] Following one rinse with 1 mL of fresh FFRPMI containing 10% heat-inactivated fetal calf serum, each well receives 1 mL of medium containing increasing concentrations of test compound (4 wells per sample) in the presence or absence of 100 μM free folic acid as indicated. Treated cells are pulsed for 2 h at 37° C., rinsed 4 times with 0.5 mL of media, and then chased in 1 mL of fresh medium up to 70 h. Spent medium is aspirated from all wells and replaced with fresh medium containing 5 μCi/mL ^3H-thymidine. Following a further 2 h 37° C. incubation, cells are washed 3 times with 0.5 mL of PBS and then treated with 0.5 mL of ice-cold 5% trichloroacetic acid per well. After 15 min, the trichloroacetic acid is aspirated and the cell material solubilized by the addition of 0.5 mL of 0.25 N sodium hydroxide for 15 min. A 450 μL aliquot of each solubilized sample is transferred to a scintillation vial containing 3 mL of Ecolume scintillation cocktail and then counted in a liquid scintillation counter. Final tabulated results are expressed as the percentage of ^3H-thymidine incorporation relative to untreated controls.

[5] = system: subcutaneous KB tumors; assay: KB tumor assay, inhibition of tumor growth in mice; assay type: in vivo, nu/nu mice; conditions: FIG. 3A; 0.5, 0.75, 1 μmol/kg; tolerable and highly toxic dose levels
Procedure: METHOD: Inhibition of Tumor Growth in Mice. Four to seven week-old mice (Balb/c or nu/nu strains) were purchased from Harlan Sprague Dawley, Inc. (Indianapolis, Ind.). Normal rodent chow contains a high concentration of folic acid (6 mg/kg chow); accordingly, mice used were maintained on the folate-free diet (Harlan diet #TD00434) for 1 week before tumor implantation to achieve serum folate concentrations close to the range of normal human serum. For tumor cell inoculation, 1×10^6 M109 cells (Balb/c strain) or 1×10^6 KB cells (nu/nu strain) in 100 μL were injected in the subcutis of the dorsal medial area. Tumors were measured in two perpendicular directions every 2-3 days using a caliper, and their volumes were calculated as 0.5×L×W^2, where L=measurement of longest axis in mm and W=measurement of axis perpendicular to L in mm. […]
METHOD: General KB Tumor Assay. The anti-tumor activity of the compounds described herein, when administered intravenously (i.v.) to tumor-bearing animals, was evaluated in nu/nu mice bearing subcutaneous KB tumors. […] Tumor growth was measured using calipers at 2-day or 3-day intervals in each treatment group. Tumor volumes were calculated using the equation V=a×b^2/2, where “a” is the length of the tumor and “b” is the width expressed in millimeters.
METHOD: Additional In vivo antitumor method. […] Survival of animals was monitored daily. […]

Structure (SMILES): CCCC(=O)OCN(C(=O)[C@@H](NC(=O)[C@H]1CCCCN1C)C(C)CC)[C@H](C[C@@H](OC(C)=O)c1nc(C(=O)N[C@@H](Cc2ccc(O)cc2)C[C@H](C)C(=O)NNC(=O)OCCSSC[C@H](NC(=O)[C@H](CC(=O)O)NC(=O)[C@H](CCCNC(=N)N)NC(=O)[C@H](CC(=O)O)NC(=O)CC[C@H](NC(=O)c2ccc(NCc3cnc4nc(N)[nH]c(=O)c4n3)cc2)C(=O)O)C(=O)O)cs1)C(C)C (stereo partly drawn) [EC0305]
- fraction unbound [1]: 0.362
- fraction unbound [2]: 0.207
- tolerability (percent weight change) [3]: not well tolerated; also recorded: exceeded MTD

Structure (SMILES): CCC(C)[C@H](NC(=O)[C@H]1CCCCN1C)C(=O)N(COC(=O)CC(C)C)[C@H](C[C@@H](OC(C)=O)c1nc(C(=O)N[C@@H](Cc2ccc(O)cc2)C[C@H](C)C(=O)NNC(=O)OCCSSC[C@H](NC(=O)[C@H](CC(=O)O)NC(=O)[C@H](CCCNC(=N)N)NC(=O)[C@H](CC(=O)O)NC(=O)CC[C@H](NC(=O)c2ccc(NCc3cnc4nc(N)[nH]c(=O)c4n3)cc2)C(=O)O)C(=O)O)cs1)C(C)C (stereo partly drawn) [EC0510]
- tolerability (percent weight change) [3]: exceeded MTD
- tolerability (percent weight change) ([3]; listed as EC0310): not well tolerated

Structure (SMILES): CCCC(=O)OCN(C(=O)[C@@H](NC(=O)[C@H]1CCCCN1C)C(C)CC)[C@H](C[C@@H](OC(C)=O)c1nc(C(=O)N[C@@H](Cc2ccc(O)cc2)C[C@H](C)C(=O)NNC(=O)OCCSSC[C@H](NC(=O)[C@H](CCC(=O)NC[C@H](O)[C@@H](O)[C@H](O)[C@H](O)CO)NC(=O)[C@H](CCC(=O)O)NC(=O)[C@H](CCC(=O)NC[C@H](O)[C@@H](O)[C@H](O)[C@H](O)CO)NC(=O)[C@H](CCC(=O)NC[C@H](O)[C@@H](O)[C@H](O)[C@H](O)CO)NC(=O)[C@H](CCC(=O)O)NC(=O)[C@H](CCC(=O)NC[C@H](O)[C@@H](O)[C@H](O)[C@H](O)CO)NC(=O)CC[C@H](NC(=O)c2ccc(NCc3cnc4nc(N)[nH]c(=O)c4n3)cc2)C(=O)O)C(=O)O)cs1)C(C)C (stereo partly drawn) [EC0530]
- cytotoxic activity in the presence of an excess of a folate-fluorescein conjugate [4]: blocked

Structure (SMILES): CCCC(=O)OCN(C(=O)[C@@H](NC(=O)[C@H]1CCCCN1C)C(C)CC)[C@H](C[C@@H](OC(C)=O)c1nc(C(=O)N[C@@H](Cc2ccc(O)cc2)C[C@H](C)C(=O)NNC(=O)OCCSSC[C@H](NC(=O)[C@H](CCC(=O)NC[C@H](O)[C@@H](O)[C@H](O)[C@H](O)CO)NC(=O)[C@H](CCC(=O)O)NC(=O)[C@H](CCC(=O)NC[C@H](O)[C@@H](O)[C@H](O)[C@H](O)CO)NC(=O)[C@H](CCC(=O)O)NC(=O)[C@H](CCC(=O)NC[C@H](O)[C@@H](O)[C@H](O)[C@H](O)CO)NC(=O)CC[C@H](NC(=O)c2ccc(NCc3cnc4nc(N)[nH]c(=O)c4n3)cc2)C(=O)O)C(=O)O)cs1)C(C)C (stereo partly drawn) [EC0531]
- cytotoxic activity in the presence of an excess of a folate-fluorescein conjugate [4]: blocked
- cytotoxic activity in the presence of an excess of folic acid [4]: blocked
- fraction unbound [1]: 0.503
- fraction unbound [2]: 0.38
- amount of free conjugate in serum compared to EC0305 ([2]; serum binding assay): two times
- weight loss or major organ tissue degeneration ([3]; FIG. 4B, 1, 2, 3 μmol/kg TIW two weeks): apparent absence of weight loss or major organ tissue degeneration
- tolerability (percent weight change) [3]: well tolerated; also recorded: safe and tolerable

Structure (SMILES): CCC(C)[C@H](NC(=O)[C@H]1CCCCN1C)C(=O)N(COC(=O)CC(C)C)[C@H](C[C@@H](OC(C)=O)c1nc(C(=O)N[C@@H](Cc2ccc(O)cc2)C[C@H](C)C(=O)NNC(=O)OCCSSC[C@H](NC(=O)[C@H](CCC(=O)NC[C@H](O)[C@@H](O)[C@H](O)[C@H](O)CO)NC(=O)[C@H](CCC(=O)O)NC(=O)[C@H](CCC(=O)NC[C@H](O)[C@@H](O)[C@H](O)[C@H](O)CO)NC(=O)[C@H](CCC(=O)NC[C@H](O)[C@@H](O)[C@H](O)[C@H](O)CO)NC(=O)[C@H](CCC(=O)O)NC(=O)[C@H](CCC(=O)NC[C@H](O)[C@@H](O)[C@H](O)[C@H](O)CO)NC(=O)CC[C@H](NC(=O)c2ccc(NCc3cnc4nc(N)[nH]c(=O)c4n3)cc2)C(=O)O)C(=O)O)cs1)C(C)C (stereo partly drawn) [EC0533]
- cytotoxic activity in the presence of an excess of a folate-fluorescein conjugate [4]: blocked

Structure (SMILES): CCC(C)[C@H](NC(=O)[C@H]1CCCCN1C)C(=O)N(COC(=O)CC(C)C)[C@H](C[C@@H](OC(C)=O)c1nc(C(=O)N[C@@H](Cc2ccc(O)cc2)C[C@H](C)C(=O)NNC(=O)OCCSSC[C@H](NC(=O)[C@H](CCC(=O)NC[C@H](O)[C@@H](O)[C@H](O)[C@H](O)CO)NC(=O)[C@H](CCC(=O)O)NC(=O)[C@H](CCC(=O)NC[C@H](O)[C@@H](O)[C@H](O)[C@H](O)CO)NC(=O)[C@H](CCC(=O)O)NC(=O)[C@H](CCC(=O)NC[C@H](O)[C@@H](O)[C@H](O)[C@H](O)CO)NC(=O)CC[C@H](NC(=O)c2ccc(NCc3cnc4nc(N)[nH]c(=O)c4n3)cc2)C(=O)O)C(=O)O)cs1)C(C)C (stereo partly drawn) [EC0543]
- cytotoxic activity in the presence of an excess of a folate-fluorescein conjugate [4]: blocked
- observed weight loss ([3]; FIG. 9, 3 μmol/kg, nu/nu mice with KB tumors): 15 to 18%

Structure (SMILES): CCCC(=O)OCN(C(=O)[C@@H](NC(=O)[C@H]1CCCCN1C)C(C)CC)[C@H](C[C@@H](OC(C)=O)c1nc(C(=O)N[C@@H](Cc2ccc(O)cc2)C[C@H](C)C(=O)O)cs1)C(C)C (stereo partly drawn) [tubulysin B, reference compound]
- responses (animals) [5]: 0/5
- toxicity (percent body weight change) ([3]; mouse, in vivo): excessive toxicity
